Columns and labels:
[1] = tested on: Bcl-2; experiment: Bcl-2 gene expression in PC12 cells by RT-PCR; type: cell-based, rat; conditions: TS 2.5 ng/ml, CNTF 50 ng/ml, alone or combined, 17 hours
Method: Total RNA was extracted from PC12 cells by the acid guanidinum isothiocyanate method (Chomchinski, P., Biotechniques, 15:532-535 (1993)) using TRI-reagent (Molecular Research Center, Inc.) cDNA synthesis was performed according to the instruction of the manufacturer (Gibco-BRL). Reverse transcription reactions were carried out for 50 minutes at 42° C. and were heated to 70° C. for 15 minutes to terminate the reaction using a MiniCycler (MJ Research). Samples were cooled to 4° C. and stored at −20° C. until use.
PCR reactions were performed in 50 μl containing 1.5 μl of template DNA (corresponding to cDNA synthesized from 100 ng of total RNA), 1×PCR buffer, 100 μM of deoxynucleotides, 2.5 mM MgCl2, 10 mM DTT, 10 μM of Bcl-2 primers, and 2 U of Taq DNA polymerase (Gibco-BRL). The synthetic DNA primers for the rat Bcl-2 were: 5′-[…]-3′ (SEQ ID NO:8) and 5′-[…]-3′ (SEQ ID NO:9) to give a PCR product of 566 bp. The sequences for synthetic GAPDH DNA primers (Wong, H. et al., Anal. Biochem., 223: 251-258 (1994)) were: 5′-[…]-3′ (SEQ ID NO:10) and 5′-[…]-3′ (SEQ ID NO:11) giving a PCR produce of 306 base pairs. […] Gels were analyzed by computerized densitometric scanning using Gel doc 1000 (Bio Rad) and Molecular Analyst Software, version 2.1.

[2] = tested on: PC12 cells; experiment: Protection of PC12 cells from apoptosis induced by trophic factor withdrawal (DAPI, TUNEL); type: cell-based; conditions: serum-free RPMI-1640/0.2% BSA, 17 hours, DAPI or TUNEL
Excerpt: PC12 cells were obtained from ATCC (Manassas, Va. (Accession No. CRL-1721)) and cultured on collagen-coated dishes in RPMI 1640 supplemented with 10% horse serum and 5% fetal bovine serum (Greene, L., and Tishler, A., Proc. Natl. Acad. Sci. USA, 73:2424-2428 (1976)). For differentiation and survival experiments, cells were washed three times in serum-free RPMI/0.2% BSA, plated in the same medium in collagen-coated plastic dishes at 2×10^5/ml, without and with growth factors, TS, recombinant proteins, synthetic peptides, for the time and concentrations indicated in the Figures.
Cell staining with 4,6-diamino-2-phenylindole (DAPI). Cells were fixed with 4% formaldehyde in PBS for 5 minutes, washed with PBS, stained with 10 μg/ml DAPI (Sigma) for 2 minutes, washed with PBS, and visualized under UV light using a fluorescent microscope. About 300-400 cells were examined under the microscope to determine the percentage of apoptotic cells.
Cell DNA nick end labeling (TUNEL) (Gavrieli, Y. et al., J. Cell. Biol., 119:493-501 (1992)) assay was performed using a kit purchased from Boehringer Mannheim as described by the manufacturer.
Protection against apoptosis of PC12 cells in serum-free medium containing a test agent (agent N) (e.g., protection induced by TS, TS fragments, NGF or other growth factors), was calculated by the formula: 100%−[(apoptosis(%) of cells kept in RPMI containing test agent N÷apoptosis (%) of cells kept in RPMI)×100%]. Testing the effect of Wortmannin (Sigma) and LY294002 (Sigma) in inhibiting the neuroprotection of TS was performed following the protocol described by others (Yao, R., and Cooper, G., Science, 267:2003-2006 (1995); D'Mello, et al., J. Neurosci., 17:1548-1560 (1997)). In brief, PC12 cells were switched from growth medium to RPMI without and with TS or various other growth factors. After 24 hours, Wortmannin and LY294002 were added to the cultures. After another 24 hours, cells were examined for apoptosis by the DAPI assay, as above.

B1: CNTF: human ciliary neurotrophic factor; recombinant human and rat CNTF (protein, UniProt P26441 1-200, looked up)
Ciliary neurotrophic factor: MAFTEHSPLTPHRRDLCSRSIWLARKIRSDLTALTESYVKHQGLNKNINLDSADGMPVASTDQWSELTEAERLQENLQAYRTFHVLLARLLEDQQVHFTPTEGDFHQAIHTLLLQVAAFAYQIEELMILLEYKIPRNEADGMPINVGDGGLFEKKLWGLKVLQELSQWTVRSIHDLRFISSHQTGIPARGSHYIANNKKM
bcl-2 mRNA expression in PC12 cells [1]: did not induce bcl-2 gene expression individually
protection of PC12 cells from apoptosis induced by trophic factor withdrawal [2]: produced little, if any, protection

Source: patent publication US20090117593A1, “T. Cruzi-derived neurotrophic agents and methods of use therefor” (Tufts University, priority 2006, published 2009)
